Results published in patent US12286661B2, “Methods for making high intensity sweeteners” (Firmenich Incorporated, priority 2018, dated 2025).

Tested on: cucurbitadienol synthase activity
Experiment: Cucurbitadienol synthase activities of fusion proteins in yeast strain with oxidosqualene boost, LCMS
Format: cell-based, S. cerevisiae
Details: average % activities over the average activities of the parent enzyme (Cucumis melo cucurbitadienol synthase)
Protocol: For analyzing cucurbitadienol, the first LCMS method included the use of C4 2.1×100 mm column, gradient 1 to 95% B for 6 minutes, and at flow rate of 0.55 ml/min; and the second LCMS method included the use of Waters Acquity UPLC Protein BEH C4 2.1×100 […], 1.7 μm, with guard, 62 to 67% B for 2 min, 100% B for 1 min, and at flow rate of 0.9 ml/min and ESI source positive single ion monitoring of 427 and 409.
The gene encoding for a cucurbitadienol synthase form Cucumis melo was codon optimized (SEQ ID: 907) and used as a starting point for generating a library of modifications. Modifications were introduced through standard molecular biology techniques consisting of fusion peptides at the N-terminus (i.e., 5′) or C-terminus (i.e., 3′) end of the enzyme. Plasmids libraries of modified cucurbitadienol synthase genes were transformed into a yeast strain with oxidosqualene boost. Enzyme activities were measured by ratios of peak heights or areas of 409 and 427 positive mass fragments at the expected retention times for cucurbitadienol vs. an internal standard using LCMS method 2 described above. Enzyme performance were scored as average % activities over the average activities of the parent enzyme (n=8). Step 1 sequences of the enzymes and the sequences that encode the enzyme can be found in SEQ ID NOs: 951-1012. Step 1 sequence also include the fusions SS2c-G10, SS2e-A7b, SS2d-G11. […]

B1: SEQ ID NO 1024: fusion protein having cucurbitadienol synthase activity (protein, listed as Citrullus lanatus)
chain: MWTILLGLATLAIAYYIHWVNKWKDSKFNGVLPPGTMGLPLIGETIQLSRPSDSLDVHPFIQSKVKRYGPIFKTCLAGRPVVVSTDAEFNHYIMLQEGRAVEMWYLDTLSKFFGLDTEWLKALGLIHKYIRSITLNHFGAESLRERFLPRIEESARETLHYWSTQPSVEVKESAAAMVFRTSIVKMFSEDSSKLLTGGLTKKFTGLLGGFLTLPLNLPGTTYNKCIKDMKEIQKKLKDILEERLAKGTGNDEDFLGQAIKDKESQQFISEEFIIQLLFSISFASFESISTSLTLILKFLADHPQVVKELEAEHEAIQKARADPDGPITWEEYKSMTFTLNVISETLRLGSVTPALLRKTTKEIQIKGYTIPEGWTVMLVTASRHRDPEVYKDPDTFNPWRWKELDSITVQKNFMPFGGGLRHCAGAEYSKVYLCTFLHILFTKYRWTKLKGGKIARAHILRFEDGLHVKFTPKE
Question: For B1, which “Activity (as compared to the parent)” value is on record?
Answer: 166%
